Measured values as given in patent US20140322196A1.

Tests used:
[1] = target: Hemagglutinin (HA) of Avian 29/05/06 H5N1 (inactivated vaccine) (Influenza A virus Avian 29/05/06 H5N1); test: cell-based or functional assay
[2] = target: Hemagglutinin (HA) of Influenza SW [change] 1089/09 swine pandemic H1N1 (inactivated subunits, vaccine) (Influenza A virus SW [change] swine pandemic H1N1); test: cell-based or functional assay

B1: bLf C-lobe (aa 285-689) (protein)
chain: SFQLFGSPPGQRDLLFKDSALGFLRIPSKVDSALYLGSRYLTTLKNLRETAEEVKARYTRVVWCAVGPEEQKKCQQWSQQSGQNVTCATASTTDDCIVLVLKGEADALNLDGGYIYTAGKCGLVPVLAENRKSSKHSSLDCVLRPTEGYLAVAVVKKANEGLTWNSLKDKKSCHTAVDRTAGWNIPMGLIVNQTGSCAFDEFFSQSCAPGADPKSRLCALCAGDDQGLDKCVPNSKEKYYGYTGAFRCLAEDVGDVAFVKNDTVWENTNGESTADWAKNLNREDFRLLCLDGTRKPVTEAQSCHLAVAPNHAVVSRSDRAAHVKQVLLHQQALFGKNGKNCPDKFCLFKSETKNLLFNDNTECLAKLGGRPTYEEYLGTEYVTAIANLKKCSTSPLLEACAFLTR
activity on viral hemagglutination (HI) [1]: 2.9 pM
activity on viral hemagglutination (HI) [2]: 46.5 fM

B2: bLf C-lobe (aa 345-689) (protein)
chain: VVWCAVGPEEQKKCQQWSQQSGQNVTCATASTTDDCIVLVLKGEADALNLDGGYIYTAGKCGLVPVLAENRKSSKHSSLDCVLRPTEGYLAVAVVKKANEGLTWNSLKDKKSCHTAVDRTAGWNIPMGLIVNQTGSCAFDEFFSQSCAPGADPKSRLCALCAGDDQGLDKCVPNSKEKYYGYTGAFRCLAEDVGDVAFVKNDTVWENTNGESTADWAKNLNREDFRLLCLDGTRKPVTEAQSCHLAVAPNHAVVSRSDRAAHVKQVLLHQQALFGKNGKNCPDKFCLFKSETKNLLFNDNTECLAKLGGRPTYEEYLGTEYVTAIANLKKCSTSPLLEACAFLTR
activity on viral hemagglutination (HI) [1]: 2.4 pM
activity on viral hemagglutination (HI) [2]: 46.5 fM
